Experimental findings from patent US20150037340A1 (PEIRRE FABRE MEDICAMENT, published 2015) are described below.

Usually EC50 stands for the concentration at which the effect is half-maximal.

A value given as a limit tells only on which side of the number the result lay.

Assay [1] concerns the target human protein Axl (cellular form on the cell surface) (human) (UniProt P30530). In words: flow cytometry, 9G4 labelling of SN12C cells treated 24 h with 9G4.
The target is the same in assay [2]. In words: flow cytometry, 9G4 labelling of untreated (No Ab) SN12C cells. In general terms: In flow cytometry, cells or beads pass a laser one at a time.
For assay [3] the target is unchanged. In words: cell-based or functional assay.
The target is the same in assay [4]. In words: Qifikit quantitative flow cytometry on DU-145 cells.
The target is the same in assay [5]. In words: Qifikit quantitative flow cytometry on SN12C cells.
The target is the same in assay [6]. In words: Qifikit quantitative flow cytometry on NCI-H125 cells.
Assay [7] shares this target. In words: flow cytometry, MAB154 labelling of untreated (No Ab) SN12C cells.
Assay [8] has the same target. In words: Qifikit quantitative flow cytometry on MCF7 cells.
For assay [9] the target is unchanged. In words: Qifikit quantitative flow cytometry on PC3 cells.
For assay [10] the target is unchanged. In words: Qifikit quantitative flow cytometry on A431 cells.
For assay [11] the target is unchanged. In words: Qifikit quantitative flow cytometry on Calu-1 cells.
Assay [12] has the same target. In words: Qifikit quantitative flow cytometry on MDA-MB-435S cells.
Assay [13] shares this target. In words: Qifikit quantitative flow cytometry on Panc1 cells.
Assay [14] has the same target. In words: Qifikit quantitative flow cytometry on A172 cells.
Assay [15] shares this target. In words: Qifikit quantitative flow cytometry on NCI-H226 cells.
Assay [16] shares this target. In words: Qifikit quantitative flow cytometry on MDA-MB-231 cells.
The target of assay [17] is T1, human protein Axl (cellular form on the cell surface) (human, UniProt P30530 26-894).
T1 construct: also called Axl receptor; membrane Axl receptor
T1 sequence: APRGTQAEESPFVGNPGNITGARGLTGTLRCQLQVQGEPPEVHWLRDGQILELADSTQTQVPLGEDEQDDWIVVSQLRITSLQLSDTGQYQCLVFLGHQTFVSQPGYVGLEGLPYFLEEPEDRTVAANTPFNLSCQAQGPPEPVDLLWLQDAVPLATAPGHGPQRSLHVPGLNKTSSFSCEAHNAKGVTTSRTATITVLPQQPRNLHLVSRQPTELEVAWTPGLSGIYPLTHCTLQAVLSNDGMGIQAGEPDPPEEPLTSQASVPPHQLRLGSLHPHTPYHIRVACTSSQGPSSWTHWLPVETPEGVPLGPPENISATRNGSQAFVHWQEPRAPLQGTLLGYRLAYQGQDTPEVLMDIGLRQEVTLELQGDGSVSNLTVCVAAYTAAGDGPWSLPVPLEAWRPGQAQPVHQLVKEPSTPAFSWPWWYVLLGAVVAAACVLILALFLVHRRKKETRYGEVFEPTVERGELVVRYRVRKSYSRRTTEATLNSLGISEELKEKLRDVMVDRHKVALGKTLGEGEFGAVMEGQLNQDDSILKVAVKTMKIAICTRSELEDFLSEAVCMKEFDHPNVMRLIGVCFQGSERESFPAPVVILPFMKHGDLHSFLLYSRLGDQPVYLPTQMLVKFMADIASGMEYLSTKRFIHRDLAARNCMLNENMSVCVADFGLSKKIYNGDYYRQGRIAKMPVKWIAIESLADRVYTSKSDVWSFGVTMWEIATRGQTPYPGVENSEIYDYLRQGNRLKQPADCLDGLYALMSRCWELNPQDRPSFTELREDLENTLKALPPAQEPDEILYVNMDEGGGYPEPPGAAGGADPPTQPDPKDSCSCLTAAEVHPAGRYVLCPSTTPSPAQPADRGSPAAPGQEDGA
In words: flow cytometry on SN12C cells, anti-human IgG Alexa488; table under the graph, unit from the axis Log [M]. How it is done: Cells were detached using trypsin and cell concentration was adjusted at 1×10⁶ cells/ml in FACS buffer. A volume of 100 μL of cell suspension was incubated with increasing concentrations of either isotype controls or anti-Axl antibodies for 20 min. at 4° C. Cells were then washed three times with FACS buffer and incubated for 20 min. more using either anti-mouse IgG Alexa488 secondary antibody or anti-human IgG Alexa488 secondary antibody at 4° C. in the dark. Cells were washed three times with FACS buffer and resuspended with 100 μl of FACS buffer before adding propidium iodide.

With “9G4 murine IgG1 isotype control antibody”, in [1], the MFI at T24 h was 13 MFI. Moreover, the MFI at T24 h in assay [2] amounted to 11 MFI. Besides, in [3], the % remaining Axl, SN12C cells stood at 117% and the Δ (MFI No Ab 24 h - MFI Ab 24 h), SN12C cells is -2 MFI.
In the case of “MAB154 commercial anti-Axl antibody (R and D Systems, ref MAB154)”, the ABC (Qifikit) was 55300 ABC in [4]; above 100000 ABC in assay [5]; 5540 ABC in [6]; 71 ABC in [8]; 8420 ABC in assay [9]; 3950 ABC in assay [10]. The ABC (Qifikit) is above 100000 ABC in assay [11]; 17800 ABC in assay [12]; 36800 ABC in [13]; 52400 ABC in assay [14]; 32100 ABC in assay [15]; 61200 ABC in assay [16]. Besides, in assay [5], the antigen binding capacity (ABC) is above 100000 ABC. This molecule had an MFI at T24 h in assay [7] of 950 MFI.

B1: c1613F12 (chimeric 1613F12) (antibody, V domains shown)
VH: EVHLQQSGAELVKPGASVKLSCTASGFNIRDTYIHWVKQRPEQGLEWIGRLDPANGHTKYGPNFQGRATMTSDTSSNTAYLQLSSLTSEDTAVYYCARGAYYYGSSGLFYFDYWGQGTTLSVSS
VL: DVQITQSPSYLATSPGETITINCRASKSISKYLAWYQEKPGKTNKLLIYSGSTLQSGVPSRFSGSGSGTDFTLTISSLEPEDFAMYFCQQHHEYPLTFGAGTELELK
notes: Murine variable domains with human constant regions; also called chimeric form of the 1613F12
In assay [17], B1 returned an EC50 of 1.81 nM.
